Results from patent US20140377253A1.

Tests used:
FcgRIIB = FcgRIIB (UniProt P31994); experiment: FACS
FcgRIIIA = FcgRIIIA (UniProt P08637); experiment: FACS
Sequence of FcgRIIIA (P08637 17-254): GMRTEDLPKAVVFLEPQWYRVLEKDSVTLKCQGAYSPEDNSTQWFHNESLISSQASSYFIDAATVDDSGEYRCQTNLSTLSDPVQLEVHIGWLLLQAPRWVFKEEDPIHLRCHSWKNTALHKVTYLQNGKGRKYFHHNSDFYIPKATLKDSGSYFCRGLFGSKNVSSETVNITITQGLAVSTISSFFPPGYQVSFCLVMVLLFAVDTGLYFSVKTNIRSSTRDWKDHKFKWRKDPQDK

Sequence of FcgRIIB (P31994 43-310): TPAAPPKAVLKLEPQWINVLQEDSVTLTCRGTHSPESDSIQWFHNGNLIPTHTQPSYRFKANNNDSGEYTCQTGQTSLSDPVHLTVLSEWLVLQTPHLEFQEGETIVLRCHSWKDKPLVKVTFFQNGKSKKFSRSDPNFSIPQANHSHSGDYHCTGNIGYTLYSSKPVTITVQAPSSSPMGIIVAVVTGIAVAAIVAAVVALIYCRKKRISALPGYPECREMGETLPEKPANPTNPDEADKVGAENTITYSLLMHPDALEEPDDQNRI

| EC50 (FcgRIIB) | EC50 (FcgRIIIA) | Substance |
| --- | --- | --- |
| 0.32 nM | 2.31 nM | SELF |
| 1.85 nM | 2.51 nM | L328F |
| 2 nM | 3.67 nM | N297A |
| 0.64 nM | 1.24 nM | S267E |
